Source: US20210292730

Biological target: T1, Recombinant murine APRIL (Sigma SRP3189-20UG), Q9D777
T1 chain: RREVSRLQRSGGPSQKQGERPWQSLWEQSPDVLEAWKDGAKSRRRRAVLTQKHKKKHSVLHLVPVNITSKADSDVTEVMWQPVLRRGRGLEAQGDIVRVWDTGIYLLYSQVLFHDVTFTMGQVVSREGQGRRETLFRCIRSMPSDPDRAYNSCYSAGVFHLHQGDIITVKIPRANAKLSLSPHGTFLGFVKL

B1: plant produced recombinant human Furin (truncated form, pEAQ-Furin (truncated)-His6-KDEL, produced in N. benthamiana) (protein)
chain: QGQKVFTNTWAVRIPGGPAVANSVARKHGFLNLGQIFGDYYHFWHRGVTKRSLSPHRPRHSRLQREPQVQWLEQQVAKRRTKRDVYQEPTDPKFPQQWYLSGVTQRDLNVKAAWAQGYTGHGIVVSILDDGIEKNHPDLAGNYDPGASFDVNDQDPDPQPRYTQMNDNRHGTRCAGEVAAVANNGVCGVGVAYNARIGGVRMLDGEVTDAVEARSLGLNPNHIHIYSASWGPEDDGKTVDGPARLAEEAFFRGVSQGRGGLGSIFVWASGNGGREHDSCNCDGYTNSIYTLSISSATQFGNVPWYSEACSSTLATTYSSGNQNEKQIVTTDLRQKCTESHTGTSASAPLAAGIIALTLEANKNLTWRDMQHLVVQTSKPAHLNANDWATNGVGRKVSHSYGYGLLDAGAMVALAQNWTTVAPQRKCIIDILTEPKDIGKRLEVRKTVTACLGEPNHITRLEHAQARLTLSYNRRGDLAIHLVSPMGTRSTLLAARPHDYSADGFNDWAFMTTHSWDEDPSGEWVLEIENTSEANNYGTLTKFTLVLYGTAPEGLPVPPESSGCKTLTSSQAHHHHHHKDEL
With B1 the “in vitro cleavage of 5 µg APRIL by 25 ng Furin, 25° C., 1 h, SDS-PAGE” value was “recombinant APRIL protein is cleaved by both plant produced human Furin (25ng) or commercial Furin (25 ng) and 16.8 kDa fragment was generated”.
